Numbering of substitutions follows the chain as printed.
B1: HAPC1573 (antibody, from another filing, V domains shown)
VH: EVKLEESGGGLVQPGGSMKLSCVASGFTFSNYYLNWVRQSPEKGLEWVADIRLKSNNYEKHYAESVKGRFTISRDDSKSSVYLQMNNLRAEDTGIYYCIREGDYFDYWGQGTTLTVSS
VL: NIVLTQSPASLAVSLGQRATISCRASESVDSFGATFMHWYQQKPGQPPKLLIYLASNLESGVPARFSGSGSRTDFTLTIDPVEADDAATYYCQQNNEDPYTFGGGTKLEIKR
B2: Humanized antibody 16 (HAPC-16) (antibody, V domains shown)
VH: EVQLVESGGGLVQPGGSLRLSCAASGFTFSNYYLNWVRQAPGKGLEWVGDIRLKSNNYEKHYAESVKGRFTISRDDSKSITYLQMNSLRAEDTAVYYCAREGDYFDYWGQGTTVTVSS
VL: NIVLTQSPSSLSASVGDRVTITCRASESVDSFGATFMHWYQQKPGKPPKLLIYLASNLESGVPSRFSGSGSRTDFTLTISSLQPEDFATYYCQQNNEDPYTFGQGTKLEIK
notes: also called Humab001-16; NO; 16 antibody
B3: HAPC-14-2 (antibody, V domains shown)
VH: B2 VH with N31F, S55K
VL: B2 VL with N1D, V3Q, P47A, N57W, R72G, Q93V
notes: Whole IgG, backbone hIgG1; also called HPAC 14-2
B4: HAPC-14-7 (antibody, V domains shown)
VH: B2 VH with N31F
VL: B2 VL with N1D, V3Q, P47A, N57R, R72G
notes: Whole IgG, backbone hIgG1; also called HPAC 14-7
B5: Humanized antibody 14 (HAPC-14) (antibody, V domains shown)
VH: B2 VH
VL: B2 VL with N1D, V3Q, P47A, R72G
notes: also called Humab001-14; NO; 14 antibody
B6: HAPC-14-10 (antibody, V domains shown)
VH: B2 VH with S55K, Y104T
VL: B2 VL with N1D, V3Q, P47A, N57R, E59G, R72G, Q93V
notes: Whole IgG, backbone hIgG1; also called HPAC 14-10
B7: HAPC-14-5 (antibody, V domains shown)
VH: B2 VH with N31F, S55K
VL: B2 VL with N1D, V3Q, P47A, N57W, E59G, R72G, Q93V
notes: Whole IgG, backbone hIgG1; also called HPAC 14-5
B8: HAPC-14-4 (antibody, V domains shown)
VH: B2 VH with N31F
VL: B2 VL with N1D, V3Q, P47A, N57R, E59G, R72G, Q93V
notes: Whole IgG, backbone hIgG1; also called HPAC 14-4
B9: HAPC-14-1 (antibody, V domains shown)
VH: B2 VH with N31F
VL: B2 VL with N1D, V3Q, P47A, N57W, E59G, R72G
notes: Whole IgG, backbone hIgG1; also called HPAC14-1
B10: HAPC-14-9 (antibody, V domains shown)
VH: B2 VH with N31F, S55K, Y104T
VL: B2 VL with N1D, V3Q, P47A, N57R, E59G, R72G
notes: Whole IgG, backbone hIgG1; also called HPAC 14-9

Assays:
[1] = target: human activated protein C (human) (UniProt P04070); experiment: cell-based or functional assay
[2] = target: T1, human activated protein C (human, UniProt P04070 43-197; P04070 212-461); experiment: ELISA on plate-coated APC (1 ug/ml), OD 450; EC50 from the table drawn beside the curves; no unit in the table, axis Ab Conc.(nM)
T1 construct: In the plasma assays aPC is generated in human plasma with Protac; also called aPC; haPC

[3] = target: T2, human protein C (human, UniProt P04070 43-461); experiment: ELISA on plate-coated HuPC (1 ug/ml), OD450
T2 construct: Zymogen form, coated on ELISA plates; also called hPC; PC

[4] = target: T1, human activated protein C; experiment: ELISA, plate coated with haPC 1 ug/mL, anti-hIgG-Fc-HRP
Experimental: (§1) The binding abilities of the anti-aPC monoclonal antibodies to haPC/hPC were assayed by Elisa. […] 1. ELISA plates were coated with haPC/hPC (1 ug/mL in PBS), 100 μL/well, at 4° C. overnight. […] 2. The plates were washed 3 times with PBST (0.1% Tween 20), 200 μL/well. […] 3. The plates were blocked with 2% BSA (PBS solution), 200 μL/well, at room temperature for 1 hour. […] 4. The plates were washed 3 times with PBST (0.1% Tween 20), 200 μL/well. […] 5. The plates were incubated with anti-aPC monoclonal antibody as primary antibody (diluted from 10 μg/mL in 2% BSA), 100 μL/well, at room temperature for 1 hour. […] 6. The plates were washed 3 times with PBST (0.1% Tween 20), 200 μL/well. [0200] 7. The plates were incubated with anti-hIgG-Fc antibody-HRP (diluted 5000-fold in 2% BSA buffer) at room temperature for 1 hour. [0201] 8. The plates were washed 6 times with PBST (0.1% Tween 20), 200 μL/well. [0202] 9. The plates were incubated with a TMB substrate (prepared from solutions A and B at 1:1 (v/v)), 100 μL/well, away from light for 10 minutes. […] 10. The reaction was quenched with HCl (1 M), 100 μL/well, and OD450 was read.

[5] = target: T1, human activated protein C; experiment: cell-based or functional assay
[6] = target: T1, human activated protein C; experiment: Octet BLI, antibody on Protein A sensor, huAPC 3.13-50 nM, 1:1 model, 25 C, pH 7.4
Experimental: Assay method: Octet analysis was carried out at 25° C. using a Protein A Octet biosensor in 1× Kinetics buffer. During the kinetics assay, the baseline step assay was run in 1× Kinetics buffer for 120 seconds, and then run for 240 seconds after the antibody was loaded to the biosensor. Next, the baseline 2 step assay was run in 1× Kinetics buffer for 120 seconds. […] The 1× Kinetics buffer was used as a blank control to show the natural dissociation of the antibody in the buffer. 10 mM glycine at pH 1.5 was used for the regeneration step. Octet data analysis software was used to calculate binding kinetics, and a 1:1 binding model was used for curve fitting.
The affinities of the mutant antibodies were assayed at pH 7.4.

[7] = target: T2, human protein C; experiment: ELISA, plate coated with hPC 1 ug/mL, anti-hIgG-Fc-HRP
Experimental: as §1

[8] = target: T2, human protein C; experiment: ELISA on plate-coated HPC, OD450
Experimental: as §1

Binder | EC50 [4] | Span [4] | Mean clotting time (s), FIX-deficient plasma, APC-antibody concentration 0.5 ug/ml [5] | Mean clotting time (s), FIX-deficient plasma, APC-antibody concentration 1 ug/ml [5] | Mean clotting time (s), FIX-deficient plasma, APC-antibody concentration 5 ug/ml [5] | Mean clotting time (s), FVIII-deficient plasma, APC-antibody concentration 0.5 ug/ml [5] | Mean clotting time (s), FVIII-deficient plasma, APC-antibody concentration 1 ug/ml [5] | Mean clotting time (s), FVIII-deficient plasma, APC-antibody concentration 5 ug/ml [5] | Kd [6] | koff [6] | kon [6] | Span [7] | binding result [8] | other results
B1 |  |  |  |  |  |  |  |  |  |  |  |  |  | Mean clotting time (s), FIX-deficient plasma, APC-antibody concentration 0.5 ug/ml [1]: 584 s; Mean clotting time (s), FIX-deficient plasma, APC-antibody concentration 1 ug/ml [1]: 567 s; Mean clotting time (s), FIX-deficient plasma, APC-antibody concentration 5 ug/ml [1]: 404 s; Mean clotting time (s), FVIII-deficient plasma, APC-antibody concentration 0.5 ug/ml [1]: 600 s; Mean clotting time (s), FVIII-deficient plasma, APC-antibody concentration 1 ug/ml [1]: 629 s; Mean clotting time (s), FVIII-deficient plasma, APC-antibody concentration 5 ug/ml [1]: 389 s; antibody concentration needed to inhibit the anticoagulant activity of aPC, Protac-induced APTT in factor-deficient human plasma [1]: > 100 µg/mL
B2 |  |  |  |  |  |  |  |  |  |  |  |  |  | EC50 [2]: 0.172 nM; binding result [3]: no binding (tested: 100 nM)
B3 | 0.111 nM | 1.77 | 233 s | 211 s | 143 s | 358 s | 196 s | 159 s | 3.78 nM | 0.00116 s⁻¹ | 307000 M⁻¹ s⁻¹ | 0.0104 | no binding (tested: 10^2 nM) | 
B4 | 0.13 nM | 1.58 | 241 s | 145 s | 146 s | 297 s | 198 s | 176 s | 7.72 nM | 0.00197 s⁻¹ | 256000 M⁻¹ s⁻¹ | ~0.00661 | no binding (tested: 10^2 nM) | 
B5 | 0.22 nM | 0.291 | 457 s | 415 s | 310 s | 574 s | 457 s | 324 s | 254 nM | 0.0162 s⁻¹ | 64000 M⁻¹ s⁻¹ | ~0.0387 | no binding (tested: 10^2 nM) | EC50 [2]: 0.249 nM
B6 | 0.28 nM | 0.745 | 331 s | 158 s |  | 254 s |  |  | 19 nM | 0.00428 s⁻¹ | 225000 M⁻¹ s⁻¹ | ~0.00145 | no binding (tested: 10^2 nM) | Mean clotting time (s), FIX-deficient plasma, APC-antibody concentration 0.05 ug/ml [5]: 733 s; Mean clotting time (s), FIX-deficient plasma, APC-antibody concentration 0.1 ug/ml [5]: 596 s; Mean clotting time (s), FVIII-deficient plasma, APC-antibody concentration 0.05 ug/ml [5]: 415 s; Mean clotting time (s), FVIII-deficient plasma, APC-antibody concentration 0.1 ug/ml [5]: 309 s
B7 | 0.0924 nM | 1.63 | 197 s | 188 s | 166 s | 224 s | 200 s | 171 s | 2.83 nM | 0.000911 s⁻¹ | 322000 M⁻¹ s⁻¹ | ~0.0475 | no binding (tested: 10^2 nM) | 
B8 | 0.0605 nM | 1.52 | 220 s | 194 s | 176 s | 221 s | 184 s | 158 s | 4.06 nM | 0.00126 s⁻¹ | 310000 M⁻¹ s⁻¹ | 0.157 | no binding (tested: 10^2 nM) | 
B9 | 0.114 nM | 2.11 | 219 s | 195 s | 171 s | 327 s | 222 s | 166 s | 3.83 nM | 0.00117 s⁻¹ | 306000 M⁻¹ s⁻¹ | 0.023 | no binding (tested: 10^2 nM) | 
B10 | 0.0761 nM | 1.07 | 170 s |  |  | 182 s |  |  | 9.69 nM | 0.00238 s⁻¹ | 245000 M⁻¹ s⁻¹ | 0.012 | no binding (tested: 10^2 nM) | Mean clotting time (s), FIX-deficient plasma, APC-antibody concentration 0.05 ug/ml [5]: 670 s; Mean clotting time (s), FIX-deficient plasma, APC-antibody concentration 0.1 ug/ml [5]: 611 s; Mean clotting time (s), FVIII-deficient plasma, APC-antibody concentration 0.05 ug/ml [5]: 262 s; Mean clotting time (s), FVIII-deficient plasma, APC-antibody concentration 0.1 ug/ml [5]: 217 s

Source: patent US20250277057A1 (OKLAHOMA MEDICAL RESEARCH FOUNDATION, published 2025)
